{"source": "paper PMC3199332", "substrate": "CC(C)=CCNc1ncnc2nc[nH]c12", "assay": "UV absorbance steady-state kinetics", "type": "biochemical, Paraglaciecola sp. T6c", "details": "hydrolytic deamination; compound 1 identified by kcat/Km 1.2 × 10^7", "data": [{"protein": "Patl2390 (Paraglaciecola sp. T6c) (protein) MQTQPLDIQQFISDMPKAELHVHLEGTLEPELSFALAVKNRIPLEFDTPEQLIAAYDFHDLPSFLKIYYAGMNVLIKEEDFYQLTWDYLTKAASENIVYAELFFDPQAHTSRGVSFETIITGIHKAQLDAEQKLGIRSQLIMCFLRELSAESAMEHLKLAMPYLPWLVGVGLDSNERDNPPAKFAEVFEYAKALDLKLTMHCDVNQHNTLVHIKQCLDDIQVDRIDHGVNALQDPALLEKIKHKQLGLTVCPISNRFVVQSLTSNEVRQMLEHELLVTINSDDPAYFRAYLNENFIELQKEGQFSAQEMITLVENAFKVSWLKDTEISQYLYQVSQYVKQAEYQAA", "values": [{"measurement": "kcat", "result": "7.3 ± 0.1", "unit": "s⁻¹"}, {"measurement": "kcat/Km", "result": "1.2e+07", "unit": "M⁻¹ s⁻¹"}]}]}
